According to patent US20260102461A1 (AIKIUM, published 2026):
Changes are numbered by the printed parent chain. One block for each binder: values may come before it.

What was measured:
[1] = target: T1, KAAG1 disordered region peptide, PGAAAAHLPRWPPPQLAASRREA (biotin (position not given)); assay: ELISA, scaffold coated on the plate, biotinylated peptide titrated, streptavidin-HRP fluorescence
T1 peptide: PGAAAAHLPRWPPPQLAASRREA
Description: (§1) Binder proteins were coated on the surface of a high binding capacity 96 well plate by incubating 100 μL of protein at […] in a coating solution (10 mM Tris pH 8.8, 50 mM NaCl), overnight at 4 C. The next morning, the coating solution was aspirated out and wells were washed once with 300 μL ELISA wash buffer (lx PBS, 0.05% Tween-20) and solution was aspirated out. The wells were blocked with 200 μL of a blocking buffer (1×PBS, 0.05% Tween-20, 3% BSA) at room temperature for 1 hour. After one hour, the blocking solution was aspirated out and 100 μL of biotinylated polypeptide in a binding buffer (1×PBS, 0.05% Tween-20, 0.5% BSA) at various concentrations was added to the appropriate well and incubated for 20 minutes. Peptide solution was aspirated out after 20 minutes and wells were washed 5 times with 300 μL of ELISA wash buffer. To detect the biotinylated peptide, 100 μL of streptavidin-HRP (50 ng/mL) was added to each well and incubated for 1 hour. The wells were subsequently washed 5 times with 300 μL of ELISA wash buffer. 100 μL of QuantaBlu Fluorogenic Peroxidase substrate solution was added to each well, incubated for 30 minutes and reaction stopped by adding 100 μL of stop solution. Fluorescent signal from each well was measured using a Biotek Cytation5 plate reader by exciting the fluorophore at […] and measuring emission at 420 nm. Fluorescent signals were plotted as a function of polypeptide concentration.

[2] = target: T2, CYSLTR2 N-terminal disordered region, MERKFMSLQPSISVSEMEPNGTFSNNNSRNCTIENFKREFFP (biotin (position not given)); assay: as above
T2 construct: also called CysLT2; CysLT2r
T2 peptide: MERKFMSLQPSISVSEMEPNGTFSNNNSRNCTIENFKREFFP
Description: as §1

[3] = target: T1, KAAG1 disordered region peptide, …; assay: modified sandwich ELISA (scaffold coated, biotinylated peptide, streptavidin-HRP fluorescence)
[4] = target: T3, CD74 disordered region peptide (CLIP), PPKPVSKMRMATPLLMQALPMGALP (biotin (position not given)); assay: modified sandwich ELISA, fluorescence grade (key: >400000, Strong binding)
T3 peptide: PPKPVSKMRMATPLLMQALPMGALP

[5] = target: T4, GMERKFMSLQPSISVSEMEPNGTFSNNNSRNCTIENFKREFFP (biotinylated, position not given); assay: ELISA, scaffold coated on the plate, biotinylated peptide titrated, streptavidin-HRP fluorescence
T4 peptide: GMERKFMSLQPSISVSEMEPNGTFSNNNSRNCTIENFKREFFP
Description: as §1

[6] = target: T5, TNFRSF13B disordered region peptide, LPPELRRQRSGEVENNSDNSGRYQ (biotin (position not given)); assay: as above
T5 peptide: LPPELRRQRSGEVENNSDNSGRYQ
Description: as §1

[7] = target: T6, CYSLTR2 Epitope SISVSEMEPNGTFSNNNSRNC (N-terminally biotinylated); assay: as above
T6 peptide: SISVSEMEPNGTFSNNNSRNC
Description: as §1

[8] = target: T7, KCNA6 Epitope QQQEQQPASGGGGQNGQQAMS (biotin (position not given)); assay: as above
T7 peptide: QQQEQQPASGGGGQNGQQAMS
Description: as §1

[9] = target: T8, CD40LG Epitope NKEETKKENSFEMQKGDQNPQIAAH (biotin (position not given)); assay: as above
T8 peptide: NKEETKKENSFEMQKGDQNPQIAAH
Description: as §1

[10] = target: T9, Urotensin-2 receptor (UR-II-R) disordered region, MALTPESPSSFPGLAATGSSVPEPPGGPNATLNSSWASPTEPSSLEDLVATGTI (biotin (position not given)); assay: modified sandwich ELISA (scaffold coated, biotinylated peptide, streptavidin-HRP fluorescence)
T9 construct: also called Urotensin II R; GPCR2 (Urotensin II)
T9 peptide: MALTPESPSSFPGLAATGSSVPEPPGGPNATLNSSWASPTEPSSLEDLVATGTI

MERKFMSLQPSISVSEMEPNG = target: T10, MERKFMSLQPSISVSEMEPNG (N-terminal biotin); assay: ELISA, scaffold coated on the plate, biotinylated peptide titrated, streptavidin-HRP fluorescence
T10 construct: First of three overlapping 21-mers of the CYSLTR2 N-terminal disordered region
T10 peptide: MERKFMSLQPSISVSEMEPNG
Description: as §1

binding result [1]: no binding (tested: 10000 nM) | binding result [2]: no binding (tested: 10000 nM)
B1: S171 (designed binder)
chain: GDTRPRFLWQLKWECHFYNGTERVRLNERCNYNQEESVRFDSDVGEYRAVTELGRPDAEFSNSQKDNLEQRRAAVDTLCRHNYGVGESFTVQRRSGGGIKEEHVINQAEYYLNPDQSGEFKFDFDGDEIFHVDMAKKETVWRLEEFGRFAIIEAYGALANIAVDKANLEIMTKQSNYT
notes: Computationally derived scaffold

binding result [1]: no binding (tested: 10000 nM) | binding result [2]: no binding (tested: 10000 nM)
B2: S164 (designed binder)
chain: GIKEEHSIRQNEKYNNPDQSGNFEFHLDGQPIFRVDMQKKRTKWQLEEFGRFASFEAQGALANIAVFKINLEIMTKRSNQSEAGSHSWQLNFTCEFHEGTESVRLSERSYYNQENFVSFNSDVGEYRATTELGRPMAEYVNSQKDTLEQRRAAVDTYCRHNYGVGEYFTVQRR
notes: as for B1

B3: S134 (designed binder)
chain: MVKYHHHHHHGGSENLYFQGMGDTRPRFLWQPKRECHFFNGTERVRFLDRYFYNQEESVRFDSDVGEFRAVTELGRPDAEYWNSQKDILEQARAAVDTYCRHNYGVVESFTVQRRVIKEEHVIIQAEFYLNPDQSGEFMFDFDGDEIFHVDMAKKETVWRLEEFGRFASFEAQGALANIAVDKANLEIMTKRSNYTPITN
binding result [3]: no binding (tested: <5000 (fluorescence signal, key))

fluorescent signal [4]: > 400000 fluorescentsignal
B4: S068 (designed binder)
chain: GDTRPRFLWQLKFECHFFNGTERVRLLERCIYNQEESVRFDSDVGEYRAVTELGRPDAEYWNSQKDLLEQRRAAVDTYCRHNYGVGESFTVQRRVEPKVTVYPSKTQPLQHHNLLVCSVSGFYPGSIEVRWFRNGQEEKAGVVSTGLIQNGDWTFQTLVMLETVPRSGEVYTCQVEHPSVTSPLTVEWRASGGGGSGGGGSGGGGIKEEHVIIQAEFYLNPDQSGEFMFDFDGDEIFHVDMAKKETVWRLEEFGRFASFEAQGALANIAVDKANLEIMTKRSNYTPITNVPPEVTVLTNSPVELREPNVLICFIDKFTPPVVNVTWLRNGKPVTTGVSETVFLPREDHLFRKFHYLPFLPSTEDVYDCRVEHWGLDEPLLKHWEFDAPSGGSHHHHHHLE
binding result [3]: no binding (tested: <5000 (fluorescence signal, key))

binding result [5]: binds | binding result [1]: no binding (tested: 10000 nM) | binding result [6]: no binding (tested: 10000 nM) | binding result [7]: binds | binding result [8]: no binding (tested: 10000 nM) | binding result [9]: no binding (tested: 10000 nM)
B5: S193 (designed binder)
chain: MGSKARMATGALAQAGGSGGSMIKEEHVINQAEYYLNPDQSGEFKFDFDGDEIFHVDMAKKETVWRLEEFGRFASFEAQGALAHIAVDKANLEIMTKRSNYTPMGDTRPRFLWQLKYECHFFNGTERVRLNERCIYNQEESVRFDSDVGEYRAVTELGRPDAEQWNSQKDHLEQRRAAVDTKCRHNYGVGESFTVQGGSHHHHHH

fluorescent signal [4]: > 400000 fluorescentsignal
B6: S143 (designed binder)
chain: MGDTRPRFLWQLKFECHFFNGTERVRLLERCIYNQEESVRFDSDVGEYRAVTELGRPDAEYWNSQKDLLEQRRAAVDTYCRHNYGVGESFTVQRRVIKEEHVIIQAEFYLNPDQSGEFMFDFDGDEIFHVDMAKKETVWRLEEFGRFASFEAQGALANIAVDKANLEIMTKRSNYTPTINGGSHHHHHH
binding result [3]: no binding (tested: <5000 (fluorescence signal, key))

fluorescent signal [4]: > 400000 fluorescentsignal
B7: S077 (designed binder)
chain: KPVSKMRMATPLLMQALPMASGGGGSGGGGDTRPRFLWQLKFECHFFNGTERVRLLERCIYNQEESVRFDSDVGEYRAVTELGRPDAEYWNSQKDLLEQRRAAVDTYCRHNYGVGESFTVQRRSGGGIKEEHVIIQAEFYLNPDQSGEFMFDFDGDEIFHVDMAKKETVWRLEEFGRFASFEAQGALANIAVDKANLEIMTKRSNYTGGSHHHHHHLE
binding result [3]: no binding (tested: <5000 (fluorescence signal, key))

binding result [5]: binds | binding result [7]: binds
B8: S180 (designed binder)
single chain: MKEEHVIIQAEFYLNPDQSGEFMFDFDGDEIFHVDMAKKETVWRLEEFGRFASFEAQGALANIAVDKANLEIMTKRSNYTPITNTRPRFLWQPKRECHFFNGTERVRFLDRYFYNQEESVRFDSDVGEFRAVTELGRPDAEYWNSQKDILEQARAAVDTYCRHNYGVVESFTVQRRVQGGSHHHHHHLE

binding result [1]: binds
B9: S058 (designed binder)
chain: GSHSMRYNYTSVSRPGRGEPRFISEGYVDDTQFVRFDSDAASPREEPRAPWIEQEGPEYWDRNTQIYKAQAQTDRESLRNLRGYYNQSEAGSHTLQSMYGCDVGPDGRLLRGHDQYYYDGKDYISLNEDLRSWTAADTAAQITQRKWEAAREAEQRRAYLEGECVEWLRRYLENGKDKLERADGGSHHHHHHLE
notes: Derived from MHC I proteins
binding result [10]: no binding (tested: <5000 (fluorescence signal, key))

binding result [1]: no binding (tested: 10000 nM)
B10: S065 (designed binder)
chain: B9 chain with N8F, E25V, Y59A, Y117A, Y123S, S125A, K146Y, W167H, Y171V
notes: Derived from MHC I proteins
binding result [10]: no binding (tested: <5000 (fluorescence signal, key))

binding result [5]: binds | binding result [7]: binds
B11: S189 (designed binder)
single chain: MGIKEEHVINQAEYCLNPDQSGEFKFDFDGDEIFHVDMAKKETVWRLEEFGRFASFEAQGALAHIAVDCANLEIMTKRSNYTPMGDTRPRFLWQLKYECHFFNGTERVRLNERCIYNQEESVRFDSDVGEYRAVTELGRPDAEQWNSQKDHLEQRRAAVDTKCRHNYGVGESFTVQGGSHHHHHH

binding result [5]: binds | binding result [1]: no binding (tested: 10000 nM) | binding result [6]: no binding (tested: 10000 nM) | binding result [7]: binds | binding result [8]: no binding (tested: 10000 nM) | binding result [9]: no binding (tested: 10000 nM)
B12: S194 (designed binder)
chain: MGIKEEHVINQAEYYLNPDQSGEFKFDFDGDEIFHVDMAKKETVWRLEEFGRFASFEAQGALAHIAVDKANLEIMTKRSNYTPMGGGSKARMATGALAQAGGSGGSGDTRPRFLWQLKYECHFFNGTERVRLNERCIYNQEESVRFDSDVGEYRAVTELGRPDAEQWNSQKDHLEQRRAAVDTKCRHNYGVGESFTVQGGSHHHHHH

binding result (MERKFMSLQPSISVSEMEPNG): no binding (tested: 10000 nM) | binding result [5]: binds | binding result [1]: no binding (tested: 10000 nM) | binding result [6]: no binding (tested: 10000 nM) | binding result [7]: binds | binding result [8]: no binding (tested: 10000 nM) | binding result [9]: no binding (tested: 10000 nM)
B13: S177 (designed binder)
chain: MIKEEHVINQAEYYLNPDQSGEFKFDFDGDEIFHVDMAKKETVWRLEEFGRFASFEAQGALAHIAVDKANLEIMTKRSNYTPMGDTRPRFLWQLKYECHFFNGTERVRLNERCIYNQEESVRFDSDVGEYRAVTELGRPDAEQWNSQKDHLEQRRAAVDTKCRHNYGVGESFTVQGGSHHHHHHLE
notes: Computationally derived from S005; 21.92 kDa
